From US20150361164A1 (EVEC, published 2015) come the findings set out here.

A word on the IC50: it is the concentration that gives 50% inhibition.

For assay [1], the target named is T1, human-derived recombinant HMGB1 (expressed in Sf9 cells) (human, UniProt P09429 1-215, limits assumed).
T1 construct: Purified from baculovirus-infected Sf9 cells on Ni-NTA; also called Sf6-expressed recombinant human HMGB1; Sf6-derived recombinant HMGB1
T1 sequence (looked up): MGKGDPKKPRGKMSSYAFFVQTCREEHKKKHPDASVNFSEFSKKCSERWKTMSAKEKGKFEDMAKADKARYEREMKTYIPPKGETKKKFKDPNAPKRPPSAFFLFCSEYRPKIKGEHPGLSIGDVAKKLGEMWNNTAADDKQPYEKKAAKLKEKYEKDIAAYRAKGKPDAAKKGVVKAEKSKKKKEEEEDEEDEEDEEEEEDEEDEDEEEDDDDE
Nature of the assay: competition ELISA, inhibition of HMGB1 binding to immobilized RAGE-Fc. How it is done: RAGE-Fc (R&D, 250 ng/well) was immobilized overnight at 4° C. on immunoplates (Nunc, Maxisorp) and 5% BSA (bovine serum albumin) was added thereto to block the plates for 2 hours, followed by addition of human monoclonal antibody (Control Ig) to block the plates for 2 hours. HMGB1 (Sf6-derived recombinant HMGB1, final concentration: 2 μg/ml) was mixed with anti-HMGB1 antibody (#10-22 chimera, EV007156 or G4) or non-HMGB1-specific human monoclonal antibody (Control Ig) serving as a negative control antibody at a final concentration of 0, 0.02, 0.2, 2 or 20 μg/ml and incubated for 60 minutes. Subsequently, the reaction solutions were added to the immunoplates and reacted for 2 hours. Then, anti-HMGB1 antibody (Abnova, #H00003146-M08, 1 μg/ml) which had been biotinylated with a Biotin Labeling Kit (Dojindo, LK03) was reacted at room temperature for 1 hour. Finally, HRP-labeled streptavidin was reacted at room temperature for 1 hour. TMB (3,3′,5,5′-tetramethylbenzidine; SureBlue, KPL, #52-00-03) was added and HMGB1 bound to RAGE was detected by absorbance at 450 nm (FIG. 10). #10-22 chimera, EV007156 and G4 were all found to inhibit the binding of HMGB1 to RAGE in a manner dependent on the added antibody concentration.

In assay [2] the target is T2, HMGB1 C-terminal region synthetic peptide #9 EDEDEEEDDDDE
T2 construct: Synthetic peptide (SIGMA-ALDRICH, PEPScreen), dotted at 4 µg/spot on nitrocellulose
T2 peptide: EDEDEEEDDDDE
Nature of the assay: dot blotting, peptide at 4 µg/spot, antibody at 1 µg/ml. How it is done:
(§1) To identify the positions of amino acids where the epitope of EV007156 against HMGB1 was located from among those constituting the C-terminal end of HMGB1, peptide mapping was conducted. Namely, 9 types of 12-residue long amino acids at 3 residue intervals and the most C-terminal 8 residues, i.e., 10 peptides in total (#1. […] (SEQ ID NO: 51), #2. […] (SEQ ID NO: 52), #3. […] (SEQ ID NO: 53), #4. EEDEEEEEDEED (SEQ ID NO: 54), #5. DEEEEEDEEDED (SEQ ID NO: 55), #6. […] (SEQ ID NO: 56), #7. EEDEEDEDEEED (SEQ ID NO: 57), #8. […] (SEQ ID NO: 58), #9. […] (SEQ ID NO: 59), #10. […] (SEQ ID NO: 60)) were designed to cover all the amino acids constituting the C-terminal region of HMGB1. The peptides thus synthesized (SIGMA-ALDRICH, PEPScreen) were each dissolved at 4 mg/ml in a 0.1 M ammonium acetate solution and added dropwise at 4 μg/spot onto a nitrocellulose membrane. After drying, the membrane was blocked with 5% skimmed milk-TBST for 90 minutes. EV007156 was then reacted for 1 hour at a concentration of 1 μg/ml. Subsequently, HRP-labeled anti-human IgG antibody (MBL, #208) was reacted for 1 hour, followed by detection using ECL prime (GE Healthcare, RPN2232) (FIG. 18). […], and more particularly the most C-terminal 8 residues (#10. […] (SEQ ID NO: 60)).

In assay [3] the target is T3, HMGB1 most C-terminal 8 residues synthetic peptide #10 EEEDDDDE
T3 construct: Synthetic peptide (SIGMA-ALDRICH, PEPScreen), dotted at 4 µg/spot on nitrocellulose
T3 peptide: EEEDDDDE
The assay is described as above. How it is done:
as §1

B1: #10-22 chimeric antibody (antibody, human IgG1, lambda)
heavy: not shown
light: YELIQPPSASVTLGNTVSITCSGDELPKRYAYWYQQKPDKSIVRVIYKDSERPSGISDRFSGSSSGTTATLTIRDTQAEDEADYYCHSTYSDDKLPVFGGGTKLTVLGQPKAAPSVTLFPPSSEELQANKATLVCLISDFYPGAVTVAWKADSSPVKAGVETTTPSKQSNNKYAASSYLSLTPEQWKSHRSYSCQVTHEGSTVEKTVAPTECS
notes: Rat #10-22 variable regions with human IgG1(lambda) constant regions; also called #10-22 chimera
Take B1: in assay [1], the half-inhibitory concentration (IC50) was determined as 3.04 µg/mL.

B2: #10-22 humanized antibody EV007156 (antibody, human IgG1, lambda, V domains shown)
VH: EVQLVESGGGLVQPGGSLKLSCAASGFTFSNAAMYWVRQASGKGLEWVARIRTKPNNYATYYADSVKGRFTISRDDSKNTAYLQMNSLKTEDTAVYYCTAPRRTEGIVSSGVDYWGQGTLVTVSS
VL: YELTQPPSVSVSPGQTASITCSGDELPKRYAYWYQQKPGQSIVRVIYKDSERPSGIPERFSGSSSGTTATLTISGTQAEDEADYYCHSTYSDDKLPVFGGGTKLTVLG
notes: also called EV007156H + EV007156L
Regarding B2, the binding result in assay [2] and in assay [3] was “binds” throughout.
